The target of this experiment is human corticotropin-releasing factor 2α (CRF2 α receptor) (human), Q13324. The experiment in a line: cell-based or functional assay.

Starred links: 1 amine or outer side, 2 acyl side, 3 side chain; linkers in the order of their positions; H or OH if unused. Non-standard residues stand in square brackets, D forms with d. Groups on a side chain read outwards from the residue. No end group written: not given here. *: point of attachment. C18 diacid = O=C(O)CCCCCCCCCCCCCCCCC(=O)*; γGlu = O=C(O)[C@H](CCC(=O)[*:2])N[*:1]; Palmitoyl = CCCCCCCCCCCCCCCC(=O)*; AEEA = NCCOCCOCC(=O)O; Aib = CC(C)(N)C(=O)O

Chain of human corticotropin-releasing factor 2α (CRF2 α receptor) (human), Q13324 (Q13324 20-411): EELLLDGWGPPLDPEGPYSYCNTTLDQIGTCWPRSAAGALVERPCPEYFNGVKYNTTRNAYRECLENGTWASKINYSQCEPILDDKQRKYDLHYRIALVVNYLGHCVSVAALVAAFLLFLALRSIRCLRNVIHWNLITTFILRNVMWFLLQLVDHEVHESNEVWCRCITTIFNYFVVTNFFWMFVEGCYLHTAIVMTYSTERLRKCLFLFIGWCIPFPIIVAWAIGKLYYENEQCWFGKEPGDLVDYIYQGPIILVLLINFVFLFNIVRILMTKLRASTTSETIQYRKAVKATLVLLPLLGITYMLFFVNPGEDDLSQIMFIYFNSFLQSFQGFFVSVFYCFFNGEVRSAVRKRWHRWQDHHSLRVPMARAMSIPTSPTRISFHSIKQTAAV

B1: SEQ ID NO: 144 (peptide)
peptide: FTLSLDVPTKIK([AEEA-AEEA-γGlu-C18 diacid])QILLKQERQKKQRQKAKTNKQILERV-NH2
modifications: N-terminus assumed
SMILES: CC[C@H](C)[C@H](NC(=O)[C@H](CCC(N)=O)NC(=O)[C@H](CCCCN)NC(=O)[C@H](CC(N)=O)NC(=O)[C@@H](NC(=O)[C@H](CCCCN)NC(=O)[C@H](C)NC(=O)[C@H](CCCCN)NC(=O)[C@H](CCC(N)=O)NC(=O)[C@H](CCCNC(=N)N)NC(=O)[C@H](CCC(N)=O)NC(=O)[C@H](CCCCN)NC(=O)[C@H](CCCCN)NC(=O)[C@H](CCC(N)=O)NC(=O)[C@H](CCCNC(=N)N)NC(=O)[C@H](CCC(=O)O)NC(=O)[C@H](CCC(N)=O)NC(=O)[C@H](CCCCN)NC(=O)[C@H](CC(C)C)NC(=O)[C@H](CC(C)C)NC(=O)[C@@H](NC(=O)[C@H](CCC(N)=O)NC(=O)[C@H](CCCCNC(=O)COCCOCCNC(=O)COCCOCCNC(=O)CC[C@H](NC(=O)CCCCCCCCCCCCCCCCC(=O)O)C(=O)O)NC(=O)[C@@H](NC(=O)[C@H](CCCCN)NC(=O)[C@@H](NC(=O)[C@@H]1CCCN1C(=O)[C@@H](NC(=O)[C@H](CC(=O)O)NC(=O)[C@H](CC(C)C)NC(=O)[C@H](CO)NC(=O)[C@H](CC(C)C)NC(=O)[C@@H](NC(=O)[C@@H](N)Cc1ccccc1)[C@@H](C)O)C(C)C)[C@@H](C)O)[C@@H](C)CC)[C@@H](C)CC)[C@@H](C)O)C(=O)N[C@@H](CC(C)C)C(=O)N[C@@H](CCC(=O)O)C(=O)N[C@@H](CCCNC(=N)N)C(=O)N[C@H](C(N)=O)C(C)C
Molecule B1 registered an EC50 [nM], 0% HSA of 1.36 nM and an EC50 [nM], 0.1% HSA of 76.3 nM.

B2: SEQ ID NO: 141 (peptide)
peptide: IVLSLD[dV]PIKLK([AEEA-AEEA-γGlu-C18 diacid])QILLKQARQK[Aib]QRAQAEKNKRILERV-NH2
modifications: N-terminus assumed
SMILES: CC[C@H](C)[C@H](N)C(=O)N[C@H](C(=O)N[C@@H](CC(C)C)C(=O)N[C@@H](CO)C(=O)N[C@@H](CC(C)C)C(=O)N[C@@H](CC(=O)O)C(=O)N[C@@H](C(=O)N1CCC[C@H]1C(=O)N[C@H](C(=O)N[C@@H](CCCCN)C(=O)N[C@@H](CC(C)C)C(=O)N[C@@H](CCCCNC(=O)COCCOCCNC(=O)COCCOCCNC(=O)CC[C@H](NC(=O)CCCCCCCCCCCCCCCCC(=O)O)C(=O)O)C(=O)N[C@@H](CCC(N)=O)C(=O)N[C@H](C(=O)N[C@@H](CC(C)C)C(=O)N[C@@H](CC(C)C)C(=O)N[C@@H](CCCCN)C(=O)N[C@@H](CCC(N)=O)C(=O)N[C@@H](C)C(=O)N[C@@H](CCCNC(=N)N)C(=O)N[C@@H](CCC(N)=O)C(=O)N[C@@H](CCCCN)C(=O)NC(C)(C)C(=O)N[C@@H](CCC(N)=O)C(=O)N[C@@H](CCCNC(=N)N)C(=O)N[C@@H](C)C(=O)N[C@@H](CCC(N)=O)C(=O)N[C@@H](C)C(=O)N[C@@H](CCC(=O)O)C(=O)N[C@@H](CCCCN)C(=O)N[C@@H](CC(N)=O)C(=O)N[C@@H](CCCCN)C(=O)N[C@@H](CCCNC(=N)N)C(=O)N[C@H](C(=O)N[C@@H](CC(C)C)C(=O)N[C@@H](CCC(=O)O)C(=O)N[C@@H](CCCNC(=N)N)C(=O)N[C@H](C(N)=O)C(C)C)[C@@H](C)CC)[C@@H](C)CC)[C@@H](C)CC)C(C)C)C(C)C
Consider B2, for which the EC50 [nM], 0% HSA amounted to 0.03 nM and the EC50 [nM], 0.1% HSA was 0.97 nM.

B3: SEQ ID NO: 142 (peptide)
peptide: IVLSLD[dV]PIKLK([AEEA-AEEA-γGlu-C18 diacid])QILLEQARQK[Aib]QREQAEKNKRILERV-NH2
modifications: N-terminus assumed
SMILES: CC[C@H](C)[C@H](N)C(=O)N[C@H](C(=O)N[C@@H](CC(C)C)C(=O)N[C@@H](CO)C(=O)N[C@@H](CC(C)C)C(=O)N[C@@H](CC(=O)O)C(=O)N[C@@H](C(=O)N1CCC[C@H]1C(=O)N[C@H](C(=O)N[C@@H](CCCCN)C(=O)N[C@@H](CC(C)C)C(=O)N[C@@H](CCCCNC(=O)COCCOCCNC(=O)COCCOCCNC(=O)CC[C@H](NC(=O)CCCCCCCCCCCCCCCCC(=O)O)C(=O)O)C(=O)N[C@@H](CCC(N)=O)C(=O)N[C@H](C(=O)N[C@@H](CC(C)C)C(=O)N[C@@H](CC(C)C)C(=O)N[C@@H](CCC(=O)O)C(=O)N[C@@H](CCC(N)=O)C(=O)N[C@@H](C)C(=O)N[C@@H](CCCNC(=N)N)C(=O)N[C@@H](CCC(N)=O)C(=O)N[C@@H](CCCCN)C(=O)NC(C)(C)C(=O)N[C@@H](CCC(N)=O)C(=O)N[C@@H](CCCNC(=N)N)C(=O)N[C@@H](CCC(=O)O)C(=O)N[C@@H](CCC(N)=O)C(=O)N[C@@H](C)C(=O)N[C@@H](CCC(=O)O)C(=O)N[C@@H](CCCCN)C(=O)N[C@@H](CC(N)=O)C(=O)N[C@@H](CCCCN)C(=O)N[C@@H](CCCNC(=N)N)C(=O)N[C@H](C(=O)N[C@@H](CC(C)C)C(=O)N[C@@H](CCC(=O)O)C(=O)N[C@@H](CCCNC(=N)N)C(=O)N[C@H](C(N)=O)C(C)C)[C@@H](C)CC)[C@@H](C)CC)[C@@H](C)CC)C(C)C)C(C)C
In turn, B3 displayed an EC50 [nM], 0% HSA of 0.05 nM and an EC50 [nM], 0.1% HSA of 1.42 nM.

B4: SEQ ID NO: 15 (peptide)
peptide: FTLSLDVPTKIK([γGlu-Palmitoyl])QKLFKQAKQKKQRQKAKTNAQILARV-NH2
modifications: N-terminus assumed
SMILES: CCCCCCCCCCCCCCCC(=O)N[C@@H](CCC(=O)NCCCC[C@H](NC(=O)[C@@H](NC(=O)[C@H](CCCCN)NC(=O)[C@@H](NC(=O)[C@@H]1CCCN1C(=O)[C@@H](NC(=O)[C@H](CC(=O)O)NC(=O)[C@H](CC(C)C)NC(=O)[C@H](CO)NC(=O)[C@H](CC(C)C)NC(=O)[C@@H](NC(=O)[C@@H](N)Cc1ccccc1)[C@@H](C)O)C(C)C)[C@@H](C)O)[C@@H](C)CC)C(=O)N[C@@H](CCC(N)=O)C(=O)N[C@@H](CCCCN)C(=O)N[C@@H](CC(C)C)C(=O)N[C@@H](Cc1ccccc1)C(=O)N[C@@H](CCCCN)C(=O)N[C@@H](CCC(N)=O)C(=O)N[C@@H](C)C(=O)N[C@@H](CCCCN)C(=O)N[C@@H](CCC(N)=O)C(=O)N[C@@H](CCCCN)C(=O)N[C@@H](CCCCN)C(=O)N[C@@H](CCC(N)=O)C(=O)N[C@@H](CCCNC(=N)N)C(=O)N[C@@H](CCC(N)=O)C(=O)N[C@@H](CCCCN)C(=O)N[C@@H](C)C(=O)N[C@@H](CCCCN)C(=O)N[C@H](C(=O)N[C@@H](CC(N)=O)C(=O)N[C@@H](C)C(=O)N[C@@H](CCC(N)=O)C(=O)N[C@H](C(=O)N[C@@H](CC(C)C)C(=O)N[C@@H](C)C(=O)N[C@@H](CCCNC(=N)N)C(=O)N[C@H](C(N)=O)C(C)C)[C@@H](C)CC)[C@@H](C)O)C(=O)O
With B4, the EC50 [nM], 0% HSA came to 0.88 nM.

B5: SEQ ID NO: 143 (peptide)
peptide: FTLSLDVPTKIK([AEEA-AEEA-γGlu-C18 diacid])QILLKQEKQKKQRQKAKTNKQILERV-NH2
modifications: N-terminus assumed
SMILES: CC[C@H](C)[C@H](NC(=O)[C@H](CCC(N)=O)NC(=O)[C@H](CCCCN)NC(=O)[C@H](CC(N)=O)NC(=O)[C@@H](NC(=O)[C@H](CCCCN)NC(=O)[C@H](C)NC(=O)[C@H](CCCCN)NC(=O)[C@H](CCC(N)=O)NC(=O)[C@H](CCCNC(=N)N)NC(=O)[C@H](CCC(N)=O)NC(=O)[C@H](CCCCN)NC(=O)[C@H](CCCCN)NC(=O)[C@H](CCC(N)=O)NC(=O)[C@H](CCCCN)NC(=O)[C@H](CCC(=O)O)NC(=O)[C@H](CCC(N)=O)NC(=O)[C@H](CCCCN)NC(=O)[C@H](CC(C)C)NC(=O)[C@H](CC(C)C)NC(=O)[C@@H](NC(=O)[C@H](CCC(N)=O)NC(=O)[C@H](CCCCNC(=O)COCCOCCNC(=O)COCCOCCNC(=O)CC[C@H](NC(=O)CCCCCCCCCCCCCCCCC(=O)O)C(=O)O)NC(=O)[C@@H](NC(=O)[C@H](CCCCN)NC(=O)[C@@H](NC(=O)[C@@H]1CCCN1C(=O)[C@@H](NC(=O)[C@H](CC(=O)O)NC(=O)[C@H](CC(C)C)NC(=O)[C@H](CO)NC(=O)[C@H](CC(C)C)NC(=O)[C@@H](NC(=O)[C@@H](N)Cc1ccccc1)[C@@H](C)O)C(C)C)[C@@H](C)O)[C@@H](C)CC)[C@@H](C)CC)[C@@H](C)O)C(=O)N[C@@H](CC(C)C)C(=O)N[C@@H](CCC(=O)O)C(=O)N[C@@H](CCCNC(=N)N)C(=O)N[C@H](C(N)=O)C(C)C
For the molecule B5, the EC50 [nM], 0% HSA came out at 1.44 nM and the EC50 [nM], 0.1% HSA is 93.8 nM.

B6: SEQ ID NO: 140 (peptide)
peptide: IVLSLD[dV]PIKLK([AEEA-AEEA-γGlu-C18 diacid])QILLEQARQK[Aib]QRAQAEKNKRILERV-NH2
modifications: N-terminus assumed
SMILES: CC[C@H](C)[C@H](N)C(=O)N[C@H](C(=O)N[C@@H](CC(C)C)C(=O)N[C@@H](CO)C(=O)N[C@@H](CC(C)C)C(=O)N[C@@H](CC(=O)O)C(=O)N[C@@H](C(=O)N1CCC[C@H]1C(=O)N[C@H](C(=O)N[C@@H](CCCCN)C(=O)N[C@@H](CC(C)C)C(=O)N[C@@H](CCCCNC(=O)COCCOCCNC(=O)COCCOCCNC(=O)CC[C@H](NC(=O)CCCCCCCCCCCCCCCCC(=O)O)C(=O)O)C(=O)N[C@@H](CCC(N)=O)C(=O)N[C@H](C(=O)N[C@@H](CC(C)C)C(=O)N[C@@H](CC(C)C)C(=O)N[C@@H](CCC(=O)O)C(=O)N[C@@H](CCC(N)=O)C(=O)N[C@@H](C)C(=O)N[C@@H](CCCNC(=N)N)C(=O)N[C@@H](CCC(N)=O)C(=O)N[C@@H](CCCCN)C(=O)NC(C)(C)C(=O)N[C@@H](CCC(N)=O)C(=O)N[C@@H](CCCNC(=N)N)C(=O)N[C@@H](C)C(=O)N[C@@H](CCC(N)=O)C(=O)N[C@@H](C)C(=O)N[C@@H](CCC(=O)O)C(=O)N[C@@H](CCCCN)C(=O)N[C@@H](CC(N)=O)C(=O)N[C@@H](CCCCN)C(=O)N[C@@H](CCCNC(=N)N)C(=O)N[C@H](C(=O)N[C@@H](CC(C)C)C(=O)N[C@@H](CCC(=O)O)C(=O)N[C@@H](CCCNC(=N)N)C(=O)N[C@H](C(N)=O)C(C)C)[C@@H](C)CC)[C@@H](C)CC)[C@@H](C)CC)C(C)C)C(C)C
Consider B6, for which the EC50 [nM], 0% HSA turned out to be 0.04 nM and the EC50 [nM], 0.1% HSA worked out at 1.27 nM.

Source of the values: patent US12679878B2, “CRF2 receptor agonists and their use in therapy” (SANOFI, priority 2020, dated 2026).
